Assay results from article PMC12502762.

Target: PA domain 3 (Bacillus anthracis)
Assay: ELISA

Chain of PA domain 3 (Bacillus anthracis) (P13423 517-624 limits assumed): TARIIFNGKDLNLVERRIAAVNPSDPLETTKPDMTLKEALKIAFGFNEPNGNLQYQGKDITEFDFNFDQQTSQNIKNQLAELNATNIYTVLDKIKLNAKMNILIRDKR

B1: antibody 8A7 (antibody, V domains shown)
VH: EVQLLESGGGLVQPGGSLRLSCAASGFSFSSYAMSWVRQAPGTGLEWVSGISGSGDNIYYADSVKGRFTISRDNSKNTVYMQMNSLRAEDTALYYCAKFSGHYGSGSFHLPEYFQHWGQGTLVTVSS
VL: DIQMTQSPATLSASIGDRVTITCRASQSISSWLAWYQQKPGKAPKVLIYKASRLESGVPSRFSGSGSGTEFTLTISSLQPDDFATYYCQQYNTYWTFGQGTKVEIIR
- EC50: 0.06 nM
